Assay results reported in paper PMC3485338.

How the values were obtained:
[1] = test system: Spo0A-DBD-6xHis (Clostridium difficile 630Δerm); assay: EMSA; conditions: EMSA: 10 mM Tris-HCl pH 7.6, 1 mM EDTA, 50 mM NaCl, 1 mM DTT, 5% glycerol, 200 ug/mL BSA, 200 cpm/uL 32P-DNA, 20 min at 30 C; 8% native PAGE in 1x TAE
[2] = molecular target: T1, Spo0A-DBD-6xHis (Clostridium difficile 630Δerm) (UniProt I6ZTX1); assay: EMSA; conditions: EMSA: 10 mM Tris-HCl pH 7.6, 1 mM EDTA, 50 mM NaCl, 1 mM DTT, 5% glycerol, 200 ug/mL BSA, 200 cpm/uL 32P-DNA, 20 min at 30 C; 8% native PAGE in 1x TAE
T1 sequence: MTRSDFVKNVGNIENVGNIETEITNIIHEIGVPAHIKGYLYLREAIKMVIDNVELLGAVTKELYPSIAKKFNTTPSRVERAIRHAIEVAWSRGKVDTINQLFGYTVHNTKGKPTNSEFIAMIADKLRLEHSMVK

Substance	binding signal (fold lower affinity than PabrB) [1]	other results
PabrB G2A	10	
PabrB C4A	10	
PabrB		Kd [1]: < 50 nM
CAATTCTGTATTCCATTTATGTATCCCTCCATAACGGTTGCTTCAATAGATCATAATTCGCCAATGACACAAAAAATCCTTTTTATTTTTCGATCTTGGCAGATTTTAATTTTAATTCAAGATATACGCGGGAATCCTTTGAATATTTGTATTTTGGATTTGTCCTGCCGTACTCCTTTGATGTATAAGAGACATCATAATGCTGTTCAAATGATCTAATGAGCTGTTCAATTTCTTCTTGTTTTCCAGCTAGCCTTACCTGTGCCACTTCGTATCCTCCGCTTTCA (double strand) [PcitG]		binding [2]: no binding
AGGATTTTTAGTAGGATAATAGCTTTATTAAATATTTATAAAATGCTGTTATTTCGGTAGTTTCCAAGACATTACTGACTATAAGAACTAATTCTTACAATCAATAGTAAACAAAATGATTGACGATTATTGGAAACCTTGTTATGCTATGAAGGTAAGGATTTTGTCGAATAATGACGAAGAAAAATATAATTTAAACAAATAAGTATCTCTTGGGAG (double strand) [PabrB]		Kd [2]: < 50 nM
PabrB G5A	10	
